{"source": "paper PMC6764022", "about": "(ACS Nano, 2019)", "molecules": {"B1": {"name": "CC-Di-EK-C disulfide-linked to C-CC-Di-KE (opposite ends) (complex)", "peptide 1": "Ac-GEIAALEQENAALEQKIAALKWKNAALKQGC-NH2", "peptide 2": "Ac-CGGKIAALKQKNAALKYEIAALEQENAALEQG-NH2", "modifications": "disulfide I:31-II:1"}}, "key": {"[1]": {"test": "Sedimentation equilibrium analytical ultracentrifugation (AUC)", "assay_type": "physicochemical", "details": "PBS, 20 °C; for MWAUC (Table S3): 55 μM each, 44–60 krpm, single ideal species, 280 nm (235 nm for CC-Di-KE), performed once, 99% confidence limits in separate column; for Oligomeric state (Table S3) / Oligomeric state (Table S3), reduced / MWAUC (Table S3), reduced / oligomeric state by AUC, in words: 55 μM; for Oligomeric state (Table S3): single run; for Oligomeric state (Table S3), reduced / MWAUC (Table S3), reduced: 10 fold excess of TCEP; for MWAUC (Table S3), reduced: 280 nm (235 nm for the KE peptides)"}, "[2]": {"test": "CD spectra and thermal unfolding", "assay_type": "physicochemical", "details": "5 °C, 50 μM, neutral pH (PBS pH 7.4)", "description": "Figure 1 Biophysical characterization of the coiled-coil heterodimer formed between charge-neutral peptides CC-Di-EK and CC-Di-KE. (a) CD spectra recorded at 5 °C and (b) thermal unfolding (filled symbols, solid line) and refolding (open symbols, dashed line) profiles, monitored through the CD signal at 222 nm, of the individual peptides CC-Di-EK (red, circles) and CC-Di-KE (blue, squares) and of an equimolar mixture of CC-Di-EK:KE (purple, triangles). The average of the spectra of the individual peptides is shown in black (no symbols). […] Representative data from a minimum of three replicates are shown. Conditions: each peptide 50 μM in PBS (pH 7.4), 1 mm path length quartz cuvette. […]\n(§1) Exceptions were CC-Di-EK-Z and Z-CC-Di-KE, the masses of which were confirmed by infusing sample from an Advion Nanomate Triverser (Nanospray source) at 1.4 kV into a Waters Synapt G2S IMS Q -TOF mass spectrometer. Peptide purity was determined to be >95% using a JACSO HPLC system set up with an analytical reverse phase Phenomenex Kinete x C18 column (5  µM particle size; 100 Å pore size; 100 x 4.6 mm) running linear gradients of buffer B vs. buffer A.\n(§2) Peptide Concentration determinations. Peptide concentrations were determined in H 2O by UV-vis absorption at 280 nm on a Nanodrop 2000 (Thermo Scientific) using the following extinction coefficients: […]"}, "ssDNA tags": {"test_system": "ssDNA tags", "test": "CD test of interaction of peptides with ssDNA tags", "assay_type": "binding", "details": "CD spectra (Figure S6a,b)", "description": "Peptide modelling. Parametric models for all six combinations of CC-Di-EK and CC-Di-KE as hetero and homodimeric parallel and antiparallel coiled coils were generated using ISAMBARD (https://github.com/woolfson -group/isambard).1 These were optimized for BUDE Interaction Energy in ISAMBARD using a genetic algorithm which generated 30,000 models per combination over 3 0 generations with 1,000 models in each. To ensure that we generated useful models, we restricted geometric parameters to values consistent with coiled -coil dimers. For both the parallel and antiparallel […]\nz shift = 0 ± 5 Å. Optimizations were repeated three times for each combination.\nPeptide purification. […]\nas §1, §2"}, "[3]": {"target": "the molecule itself", "test": "counting of free and bound DNA origami nanostructures in electron micrographs (TEM); peptides displayed on DNA origamis A and B through oligonucleotide tags; gel-purified An and Bn mixed, total monomer concentrations 0.25-2.4 nM; background of random coincidences subtracted; Kd from the slope of a linear fit through the origin; additional systematic error of approximately 20%"}, "[4]": {"target": "the molecule itself", "test": "AUC; sedimentation equilibrium of the disulfide-linked heterodimers, 55 µM in PBS, 20 °C, 24-39 krpm in 3 krpm steps (colour key of Figure S3 o, p), fits to a single ideal species"}, "[5]": {"target": "the molecule itself", "test": "AUC; sedimentation equilibrium, 55 µM of each peptide in PBS, 20 °C, with TCEP reducing agent (10-fold excess; for the pair 5-fold relative to total peptide), fits to a single ideal species"}, "[6]": {"target": "the molecule itself", "test": "AUC; sedimentation equilibrium, 55 µM of each peptide in PBS pH 7.4, 20 °C, 44-60 krpm, fits to a single ideal species"}, "CC-Di-KE": {"target": "T1, CC-Di-KE (N-terminal acetylation (methods, said of the peptides in general))", "T1 chain": "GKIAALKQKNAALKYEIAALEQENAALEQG", "test": "circular dichroism thermal unfolding, concentration dependence of TM; Kd for heterodimerization estimated from the concentration dependence of the TM of free peptides in solution", "details": "both partners purified"}}, "note": "Bridges are numbered along the chain shown (N, C = ends). Roman numbers before positions name the chains, in order. Where no end group is shown, it is not given here. [ ]: non-standard residue; d: D form. Lys(N3) = [N-]=[N+]=NCCCC[C@H](N)C(=O)O", "data": [{"molecule": "Ac-G EIAALEQ ENAALEQ KIAALKW KNAALKQ GC-NH2 | Ac-G KIAALKQ KNAALKY EIAALEQ ENAALEQ GC-NH2 (disulfide) [CC-Di-EK-C | CC-Di-KE-C, obligate heterodimer linked by disulfide via both C-termini]", "values": [{"measurement": "Oligomeric state (Table S3), disulfide-linked heterodimer", "setting": "[1]; 24–39 krpm (Figure S3 o, p)", "value": 1.00, "unit": "x obligate dimer"}, {"measurement": "MWAUC (Table S3), disulfide-linked heterodimer", "setting": "[1]; 24–39 krpm (Figure S3 o, p), 280 nm", "value": 6695, "unit": "Da"}]}, {"molecule": "Ac-G EIAALEQ EIAALEQ KNAALKW KIAALKQ G-NH2 (Ac-GEIAALEQEIAALEQKNAALKWKIAALKQG-NH2) [CC-Di-EN4, 4-heptad coiled-coil peptide withone asparagine]", "values": [{"measurement": "MWAUC (Table S3)", "setting": "[1]", "value": 6079, "unit": "Da"}, {"measurement": "Oligomeric state (Table S3)", "setting": "[1]", "value": 1.87, "unit": "x monomer"}]}, {"molecule": "Ac-G LEQ EIAALEQ KNAALKW KIAALKQ G-NH2 [CC-Di-EN3.5, 3.5-heptad coiled-coil peptide]", "values": [{"measurement": "MWAUC (Table S3)", "setting": "[1]", "value": 2982, "unit": "Da"}, {"measurement": "Oligomeric state (Table S3)", "setting": "[1]", "value": 1.04, "unit": "x monomer"}]}, {"molecule": "Ac-G EIAALEQ KNAALKW KIAALKQ G-NH2 (Ac-GEIAALEQKNAALKWKIAALKQG-NH2) [CC-Di-EN3, 3-heptad coiled-coil peptide]", "values": [{"measurement": "MWAUC (Table S3)", "setting": "[1]", "value": 2369, "unit": "Da"}, {"measurement": "Oligomeric state (Table S3)", "setting": "[1]", "value": 0.95, "unit": "x monomer"}]}, {"molecule": "Ac-CGG KIAALKQ KNAALKY EIAALEQ ENAALEQ G-NH2 (Ac-CGGKIAALKQKNAALKYEIAALEQENAALEQG-NH2) [C-CC-Di-KE, CC-Di-KE with N-terminal Cys]", "values": [{"measurement": "Oligomeric state (Table S3), reduced", "setting": "[1]", "value": 0.92, "unit": "x monomer"}, {"measurement": "MWAUC (Table S3), reduced", "setting": "[1]", "value": 3126, "unit": "Da"}]}, {"molecule": "Ac-G EIAALEQ ENAALEQ KIAALKW KNAALKQ GC-NH2 (Ac-GEIAALEQENAALEQKIAALKWKNAALKQGC-NH2) [CC-Di-EK-C, CC-Di-EK with C-terminal Cys]", "values": [{"measurement": "Oligomeric state (Table S3), reduced", "setting": "[1]", "value": 1.04, "unit": "x monomer"}, {"measurement": "MWAUC (Table S3), reduced", "setting": "[1]", "value": 3474, "unit": "Da"}]}, {"molecule": "Ac-G KIAALKQ KNAALKY EIAALEQ ENAALEQ GC-NH2 (Ac-GKIAALKQKNAALKYEIAALEQENAALEQGC-NH2) [CC-Di-KE-C, CC-Di-KE with C-terminal Cys]", "values": [{"measurement": "Oligomeric state (Table S3), reduced", "setting": "[1]", "value": 0.92, "unit": "x monomer"}, {"measurement": "MWAUC (Table S3), reduced", "setting": "[1]", "value": 3062, "unit": "Da"}]}, {"molecule": "Ac-CGG EIAALEQ ENAALEQ KIAALKW KNAALKQ G-NH2 (Ac-CGGEIAALEQENAALEQKIAALKWKNAALKQG-NH2) [C-CC-Di-EK, N-terminally Cys-labelled CC-Di-EK]", "values": [{"measurement": "Oligomeric state (Table S3), reduced", "setting": "[1]", "value": 1.96, "unit": "x monomer"}, {"measurement": "MWAUC (Table S3), reduced", "setting": "[1]", "value": 6683, "unit": "Da"}, {"measurement": "oligomeric state by AUC, in words", "setting": "[1]", "value": "exists as a dimer in solution even under reducing conditions"}]}, {"molecule": "Ac-G EIAALEQ ENAALEQ KIAALKW KNAALKQ G-NH2 (Ac-GEIAALEQENAALEQKIAALKWKNAALKQG-NH2) [CC-Di-EK, charge-neutral coiled-coil peptide, four heptads, asparagines at two a sites]", "values": [{"measurement": "folding state by CD", "setting": "[2]", "value": "either largely or fully unfolded"}, {"measurement": "MWAUC (Table S3)", "setting": "[1]", "value": 3274, "unit": "Da"}, {"measurement": "Oligomeric state (Table S3)", "setting": "[1]", "value": 1.00, "unit": "x monomer"}, {"measurement": "oligomeric state by AUC, in words", "setting": "[1]", "value": "monomers"}, {"measurement": "interaction with ssDNA tags", "setting": "ssDNA tags", "value": "no interaction"}]}, {"molecule": "Ac-G KIAALKQ KNAALKY EIAALEQ ENAALEQ G-NH2 (Ac-GKIAALKQKNAALKYEIAALEQENAALEQG-NH2) [CC-Di-KE, charge-neutral coiled-coil peptide, partner of CC-Di-EK]", "values": [{"measurement": "folding state by CD", "setting": "[2]", "value": "either largely or fully unfolded"}, {"measurement": "MWAUC (Table S3)", "setting": "[1]", "value": 3096, "unit": "Da"}, {"measurement": "Oligomeric state (Table S3)", "setting": "[1]", "value": 0.96, "unit": "x monomer"}, {"measurement": "oligomeric state by AUC, in words", "setting": "[1]", "value": "monomers"}, {"measurement": "interaction with ssDNA tags", "setting": "ssDNA tags", "value": "no interaction"}]}, {"molecule": "[Lys(N3)]GKIAALKQKNAALKYEIAALEQENAALEQG-NH2 (other, also: tag β hybridised to handle of DNA origami B, three copies per origami)", "note": "[B3: DNA origami B decorated with three β-CC-Di-KE]", "values": [{"measurement": "Kd", "setting": "[3]", "value": "20 ± 3", "unit": "nM"}]}, {"molecule": "B1", "values": [{"measurement": "stoichiometry N", "setting": "[4]", "value": 2.6, "unit": "x obligate dimer"}]}, {"molecule": "Ac-CGGEIAALEQENAALEQKIAALKWKNAALKQG-NH2", "note": "[C-CC-Di-EK]", "values": [{"measurement": "stoichiometry N", "setting": "[5]", "value": 1.96, "unit": "x monomer"}]}, {"molecule": "Ac-GEIAALEQEIAALEQKNAALKWKIAALKQG-NH2", "note": "[CC-Di-EN4]", "values": [{"measurement": "stoichiometry N", "setting": "[6]", "value": 1.87, "unit": "x monomer"}]}, {"molecule": "Ac-GEIAALEQENAALEQKIAALKWKNAALKQG-NH2", "note": "[CC-Di-EK]", "values": [{"measurement": "Kd", "setting": "CC-Di-KE", "value": "102 ± 26", "unit": "nM"}]}]}
